In US20240024504A1, “SITE-SELECTIVE LYSINE ACETYLATION OF HUMAN IMMUNOGLOBULIN G AND IgG-RELATED PRODUCTS FOR IMMUNOTHERAPY” (The Chinese University of Hong Kong, priority 2022, published 2024):

Target: Atezolizumab
Assay: microscale thermophoresis instrument, ligand-induced fluorescence change; f-F0 held at 10 nM, the concentration axis is that of atezolizumab

peptide f-F0 (FITC-labeled parental Fc-III peptide F0, disulfide bond replaced by a thioether bond)
EC50 (read off the curve): 20 nM
